Publication PMC9060507 (Proceedings of the National Academy of Sciences of the …, 2022)

Molecular target: T1, Methylosinus trichosporium OB3b MbnBC enzyme complex (wild type) (Methylosinus trichosporium OB3b, UniProt A0A2D2D5M1;A0A2D2CY73)
T1 sequence 1: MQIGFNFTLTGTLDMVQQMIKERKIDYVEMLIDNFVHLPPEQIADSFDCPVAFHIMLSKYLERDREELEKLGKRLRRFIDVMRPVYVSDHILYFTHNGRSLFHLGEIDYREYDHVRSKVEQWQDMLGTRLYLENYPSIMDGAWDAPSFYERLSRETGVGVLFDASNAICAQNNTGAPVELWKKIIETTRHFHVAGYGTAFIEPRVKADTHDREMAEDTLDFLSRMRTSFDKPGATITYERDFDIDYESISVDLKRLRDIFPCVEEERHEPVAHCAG
T1 sequence 2: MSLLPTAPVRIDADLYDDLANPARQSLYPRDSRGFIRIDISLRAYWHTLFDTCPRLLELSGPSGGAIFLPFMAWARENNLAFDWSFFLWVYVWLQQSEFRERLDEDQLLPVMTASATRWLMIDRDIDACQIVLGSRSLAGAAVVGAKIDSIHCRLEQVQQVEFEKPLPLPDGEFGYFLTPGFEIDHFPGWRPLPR
Assay: EPR spectroscopy

Binder: MTVKIAQKKVLPVIGRAAALCGSCYPCSCM [MbnA precursor peptide from Ms. trichosporium OB3b]
- binding result: binds
